This data set concerns Escherichia coli TOP10. The experiment in a line: shrunken log2 fold change of peptide-encoding DNA abundance (4.5 h post-induction vs induction); higher = less antimicrobial activity (less host growth inhibition). To be noted: time post-induction: 4.5 h; library: site-saturation at positions 5, 18, 19, 20.

From the supplement of paper PMC9112550, “Optimization of the antimicrobial peptide Bac7 by deep mutational scanning” (BMC Biology, 2022) come the findings set out here.
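Further: peptides expressed intracellularly from a pBAD plasmid library in pooled LB shake-flask culture, induced with 0.3% L-arabinose, DNA abundance read by NGS, three biological replicates, DESeq2 with apeglm shrinkage.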

Regarding RRIRVRPPRLPRPRPRPHGWPRP, the “shrunken log2 fold change” value stood at 0.492.
For the sequence RRIRYRPPRLPRPRPRPGSKPRP, the “shrunken log2 fold change” value was -0.0678.
Next, RRIRKRPPRLPRPRPRPPIEPRP: 0.223; RRIRCRPPRLPRPRPRPYDAPRP: -0.334; RRIRFRPPRLPRPRPRPTGEPRP: 0.583.
Turning to RRIRMRPPRLPRPRPRPGNRPRP, the “shrunken log2 fold change” value turned out to be 0.0934.
Next, RRIRYRPPRLPRPRPRPQWDPRP: -0.842.
Then RRIRYRPPRLPRPRPRPVGQPRP, with -0.106; and RRIRMRPPRLPRPRPRPWRVPRP, with -0.158.
Next, RRIRYRPPRLPRPRPRPITRPRP: 0.0448.
As for RRIRMRPPRLPRPRPRPKLDPRP, the “shrunken log2 fold change” value worked out at 1.7.
For the sequence RRIRSRPPRLPRPRPRPTIIPRP, the “shrunken log2 fold change” value was -0.35.
For RRIRCRPPRLPRPRPRPTMWPRP, the “shrunken log2 fold change” value amounted to 0.259.
RRIRWRPPRLPRPRPRPENIPRP: the “shrunken log2 fold change” value was -0.148.
In the case of RRIRHRPPRLPRPRPRPDHIPRP, the “shrunken log2 fold change” value is -0.336.
Then RRIRFRPPRLPRPRPRPAPQPRP, with 0.666; and RRIRCRPPRLPRPRPRPERGPRP, with 0.472; and RRIRQRPPRLPRPRPRPAQIPRP, with 0.028.
Then RRIRPRPPRLPRPRPRPSTQPRP, with -0.355; and RRIRLRPPRLPRPRPRPNNVPRP, with -0.395; and RRIRVRPPRLPRPRPRPHMEPRP, with -0.0402.
Next, RRIRDRPPRLPRPRPRPWMGPRP: -0.368; RRIRIRPPRLPRPRPRPLWPPRP: -0.0906.
As to RRIRGRPPRLPRPRPRPKICPRP, the “shrunken log2 fold change” value was -0.0723.
With RRIRRRPPRLPRPRPRPESKPRP, the “shrunken log2 fold change” value came to 0.265.
Then RRIRNRPPRLPRPRPRPQPPPRP, with 0.833; and RRIRSRPPRLPRPRPRPLDGPRP, with -0.365; and RRIRHRPPRLPRPRPRPIRHPRP, with -0.0447.
Next, RRIRWRPPRLPRPRPRPNPFPRP: 0.208; RRIRFRPPRLPRPRPRPRGPPRP: 0.763.
Then RRIRSRPPRLPRPRPRPCGKPRP, with 0.027; and RRIRWRPPRLPRPRPRPIQTPRP, with -0.0178; and RRIRSRPPRLPRPRPRPVDLPRP, with -0.199.
On to RRIRYRPPRLPRPRPRPIQWPRP, for which the “shrunken log2 fold change” value is -0.00101.
Then RRIRHRPPRLPRPRPRPLPMPRP, with -0.00404; and RRIRYRPPRLPRPRPRPVKIPRP, with -0.0138; and RRIRNRPPRLPRPRPRPIWGPRP, with -0.0075.
Then RRIRIRPPRLPRPRPRPPDPPRP, with 0.243.
Then RRIRERPPRLPRPRPRPFPDPRP, with -0.00133; and RRIRYRPPRLPRPRPRPHWYPRP, with -1.02; and RRIRTRPPRLPRPRPRPRCQPRP, with 0.113.
For the sequence RRIRFRPPRLPRPRPRPTNHPRP, the “shrunken log2 fold change” value is -0.536.
Next, RRIRVRPPRLPRPRPRPNWMPRP: -0.235; RRIRARPPRLPRPRPRPPPAPRP: 1.25.
Next, RRIRPRPPRLPRPRPRPIKNPRP: -0.219; RRIRYRPPRLPRPRPRPTASPRP: -0.389.
Then RRIRCRPPRLPRPRPRPQTMPRP, with -0.349.
Turning to RRIRARPPRLPRPRPRPVDIPRP, the “shrunken log2 fold change” value came to 0.135.
Consider RRIRERPPRLPRPRPRPSHPPRP, for which the “shrunken log2 fold change” value is -0.481.
Take RRIRFRPPRLPRPRPRPHAMPRP: the “shrunken log2 fold change” value was determined as 0.203.
For the sequence RRIRRRPPRLPRPRPRPAQFPRP, the “shrunken log2 fold change” value stood at 0.135.
Next, RRIRPRPPRLPRPRPRPPQCPRP: 0.228.
Then RRIRKRPPRLPRPRPRPSNCPRP, with -0.309.
Next, RRIRERPPRLPRPRPRPDVYPRP: -0.301; RRIRGRPPRLPRPRPRPFGEPRP: 0.793.
On to RRIRTRPPRLPRPRPRPEVMPRP, for which the “shrunken log2 fold change” value stood at 0.114.
For the sequence RRIRYRPPRLPRPRPRPWRNPRP, the “shrunken log2 fold change” value is -0.00674.
Next, RRIRCRPPRLPRPRPRPTHWPRP: 0.546.
Take RRIRRRPPRLPRPRPRPYDFPRP: the “shrunken log2 fold change” value was -0.296.
Next, RRIRRRPPRLPRPRPRPMAFPRP: 0.024; RRIRHRPPRLPRPRPRPCERPRP: -0.0535; RRIRQRPPRLPRPRPRPAEGPRP: 0.045.
Next, RRIRFRPPRLPRPRPRPPWKPRP: 0.154; RRIRARPPRLPRPRPRPMLFPRP: 0.674; RRIRHRPPRLPRPRPRPWRVPRP: 0.0326.
Next, RRIRNRPPRLPRPRPRPVLTPRP: -0.235.
With RRIRARPPRLPRPRPRPIVAPRP, the “shrunken log2 fold change” value is 0.371.
For RRIRVRPPRLPRPRPRPWNPPRP, the “shrunken log2 fold change” value was -0.0803.
Turning to RRIRRRPPRLPRPRPRPYWKPRP, the “shrunken log2 fold change” value stood at 0.0393.
Take RRIRWRPPRLPRPRPRPTSLPRP: the “shrunken log2 fold change” value was 0.0239.
Then RRIRIRPPRLPRPRPRPCGQPRP, with -0.279; and RRIRGRPPRLPRPRPRPFMHPRP, with 0.416.
Next, RRIRNRPPRLPRPRPRPPAEPRP: 0.256; RRIRIRPPRLPRPRPRPKYRPRP: 0.0239.
Turning to RRIRERPPRLPRPRPRPLVAPRP, the “shrunken log2 fold change” value came out at 0.0966.
Next, RRIRNRPPRLPRPRPRPGCVPRP: 0.634.
Next, RRIRERPPRLPRPRPRPCEAPRP: -0.041; RRIRWRPPRLPRPRPRPQPRPRP: 0.462.
Next, RRIRERPPRLPRPRPRPYFYPRP: -0.757; RRIRQRPPRLPRPRPRPTYHPRP: -0.184; RRIRCRPPRLPRPRPRPFHPPRP: -0.075.
In the case of RRIRHRPPRLPRPRPRPYFMPRP, the “shrunken log2 fold change” value is -0.489.
Then RRIRTRPPRLPRPRPRPWQMPRP, with -0.0135.
Next, RRIRPRPPRLPRPRPRPMEQPRP: 0.0098; RRIRARPPRLPRPRPRPKSMPRP: 0.0164; RRIRARPPRLPRPRPRPASWPRP: 0.537.
Next, RRIRSRPPRLPRPRPRPTSVPRP: 0.00616; RRIRARPPRLPRPRPRPSEAPRP: 0.52.
Take RRIRERPPRLPRPRPRPVYNPRP: the “shrunken log2 fold change” value is -0.0493.
Then RRIRIRPPRLPRPRPRPQEDPRP, with -0.0165; and RRIRPRPPRLPRPRPRPEADPRP, with 0.0865; and RRIRHRPPRLPRPRPRPDMQPRP, with -0.106.
RRIRRRPPRLPRPRPRPMSFPRP: the “shrunken log2 fold change” value was -0.0277.
Next, RRIRMRPPRLPRPRPRPLQTPRP: 3.06; RRIRLRPPRLPRPRPRPYSSPRP: -0.203; RRIRHRPPRLPRPRPRPCPSPRP: 0.0144.
In the case of RRIRRRPPRLPRPRPRPKRDPRP, the “shrunken log2 fold change” value stood at 0.5.
Then RRIRKRPPRLPRPRPRPIMHPRP, with -0.204; and RRIRERPPRLPRPRPRPNDMPRP, with -0.0595.
Next, RRIRSRPPRLPRPRPRPMQHPRP: -0.122; RRIRLRPPRLPRPRPRPYFLPRP: -0.798; RRIRIRPPRLPRPRPRPMCKPRP: -0.262.
Then RRIRNRPPRLPRPRPRPNKYPRP, with -0.774; and RRIRVRPPRLPRPRPRPTFGPRP, with 0.215.
As for RRIRERPPRLPRPRPRPCHRPRP, the “shrunken log2 fold change” value was -0.02.
Next, RRIRERPPRLPRPRPRPYQDPRP: -0.0275; RRIRWRPPRLPRPRPRPNWAPRP: -0.0835.
Next, RRIRERPPRLPRPRPRPIQDPRP: 0.876.
Then RRIRVRPPRLPRPRPRPGAPPRP, with 0.603.
With RRIRYRPPRLPRPRPRPWDEPRP, the “shrunken log2 fold change” value was -0.999.
Next, RRIRGRPPRLPRPRPRPCIQPRP: -0.0256; RRIRKRPPRLPRPRPRPAAQPRP: 0.814.
Then RRIRWRPPRLPRPRPRPVAIPRP, with -0.0829.
With RRIRRRPPRLPRPRPRPITTPRP, the “shrunken log2 fold change” value came out at 0.032.
Take RRIRDRPPRLPRPRPRPCTDPRP: the “shrunken log2 fold change” value is -0.00136.
Next, RRIRHRPPRLPRPRPRPAVCPRP: 0.0561; RRIRYRPPRLPRPRPRPAYTPRP: -0.222.
Next, RRIRDRPPRLPRPRPRPTRNPRP: 0.174.
Next, RRIRPRPPRLPRPRPRPAPGPRP: 0.645.
Turning to RRIRYRPPRLPRPRPRPARLPRP, the “shrunken log2 fold change” value was -0.0429.
Next, RRIRNRPPRLPRPRPRPAAMPRP: -0.223.
Then RRIRGRPPRLPRPRPRPSTHPRP, with 0.159; and RRIRWRPPRLPRPRPRPTRRPRP, with 0.377.
Next, RRIRGRPPRLPRPRPRPMLFPRP: 0.935; RRIRKRPPRLPRPRPRPFINPRP: -0.148.
